B1: Recombinant yeast Sml1 protein (other)
chain: MQNSQDYFYAQNRCQQQQAPSTLRTVTMAEFRRVPLPPMAEVPMLSTQNSMGSSASASASSLEMWEKDLEERLNSIDHDMNNNKFGSGELKSMFNQGKVEEMDF
notes: Immobilized on the BIAcore chip in the biosensor experiments; also called YML058W product
B2: Sml1p: 104 amino acid yeast protein encoded by YML058w (SML1) that binds Rnr1 and inhibits ribonucleotide reductase; recombinant, expressed in E. coli (protein)
chain: B1 chain

Tests used:
[1] = biological target: T1, Recombinant yeast Rnr1 protein (large subunit of ribonucleotide reductase) (yeast (Saccharomyces cerevisiae), UniProt P21524 1-888); experiment: BIAcore SPR, Sml1p immobilized, Rnr1p injected (0.1-2.5 µM); equilibrium response fitted to one site binding model; equilibrium response fit (GraphPad Prism), directly determined
T1 construct: It is in monomer/dimer/tetramer equilibrium depending on dTTP; also called yeast R1 protein
T1 sequence (looked up): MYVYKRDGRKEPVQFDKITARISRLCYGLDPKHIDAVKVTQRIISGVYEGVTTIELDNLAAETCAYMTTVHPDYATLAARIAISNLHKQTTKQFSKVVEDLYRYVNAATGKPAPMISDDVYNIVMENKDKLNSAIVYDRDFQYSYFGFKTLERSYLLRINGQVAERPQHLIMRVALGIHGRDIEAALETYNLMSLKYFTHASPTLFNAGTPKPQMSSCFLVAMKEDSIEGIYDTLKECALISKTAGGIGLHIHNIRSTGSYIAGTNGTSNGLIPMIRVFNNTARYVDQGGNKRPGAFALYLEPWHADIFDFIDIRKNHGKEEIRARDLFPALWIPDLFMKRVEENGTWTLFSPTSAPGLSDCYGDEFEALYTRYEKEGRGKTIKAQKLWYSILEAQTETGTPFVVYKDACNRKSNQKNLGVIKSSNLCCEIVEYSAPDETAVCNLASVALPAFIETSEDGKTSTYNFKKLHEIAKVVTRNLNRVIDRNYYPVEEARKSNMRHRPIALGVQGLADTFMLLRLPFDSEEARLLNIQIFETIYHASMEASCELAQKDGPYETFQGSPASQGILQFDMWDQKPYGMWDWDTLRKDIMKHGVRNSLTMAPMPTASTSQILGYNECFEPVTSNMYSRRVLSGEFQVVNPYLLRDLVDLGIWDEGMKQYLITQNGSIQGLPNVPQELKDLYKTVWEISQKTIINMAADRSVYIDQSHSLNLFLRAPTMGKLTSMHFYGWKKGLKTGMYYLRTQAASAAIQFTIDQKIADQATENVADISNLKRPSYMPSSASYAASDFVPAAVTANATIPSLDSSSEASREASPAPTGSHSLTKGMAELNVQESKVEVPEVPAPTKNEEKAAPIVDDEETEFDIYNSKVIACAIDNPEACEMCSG
Method: In this figure, the bulk effect response of around 60 RU has been subtracted.
BIAcore biosensor analysis. The interaction between Sml1p and either yeast Rnr1p or mouse R1 protein was studied by biosensor analysis using the BIAcore method (Biacore AB). The Sml1 protein was prepared in 10 mM sodium acetate, pH 5.2, at a concentration of 0.44 mg/ml; it was then immobilized on the dextran layer of the sensor chip as described previously for the mouse R2 protein (17). The ligand proteins were equilibrated with running buffer (10 mM Hepes-KOH, pH 7.4, 200 mM potassium acetate, 1 mM EDTA, 5 mM magnesium acetate and 0.05% Surfactant P20 (BIAcore). The interactions were studied at a constant temperature of 22° C. and a constant flow of 5 μl/min. Kinetics for the interaction of Sml1p with yeast Rnr1p was determined by allowing the immobilized Sml1p to interact with increasing concentrations of Rnr1p (18). The resonance unit (RU) is proportional to the mass, and 1 RU corresponds to a surface concentration of 1 pg of protein/mm² of the 100 nm thick dextran layer (19).
In control experiments, where the same series of Rnr1p solutions passed a sensor chip without immobilized Sml1p, a "bulk effect" gave a response of only about 60 RU. […] Calculating the equilibrium dissociation constant from these rate constants gave a K_0 of about 0.25 µM, which is close to the directly determined K_0.

yeast Rnr1p = biological target: T2, yeast Rnr1p (Saccharomyces cerevisiae, UniProt P21524); experiment: sucrose gradient centrifugation of Rnr1p with Sml1p; assay type: binding; details: 500 μg Rnr1p, 90 μg Sml1 protein, 0.1 mM dTTP
T2 construct: made in house; host or cells: E. coli BL21 (DE3), pET3a
T2 sequence (P21524 1-888): T1 sequence (looked up)
Method: FIG. 11 Sucrose gradient centrifugation of yeast Rnr1p in the absence or in the presence of dTTP, with or without Sml1p. Sedimentation (from the right to the left) was performed as described in Materials and Methods. Catalase (s20,w=11.4 S) sedimented in fraction 14 (arrow). Thick line, Rnr1 protein sedimented alone without dTTP or Sml1p. The two peaks represent the dimer (fraction 21) and monomer (fraction 25) positions in the gradient. Hatched line, Rnr1p sedimented in the presence of dTTP. Most of the material now sedimented as tetramers (fraction 5) or dimers (fraction 21). Note that the small peak sedimenting at fraction 26 represents an impurity in the Rnr1p preparation (the band just below the R1 band in the gel insert). The sedimentation of this material is not affected by dTTP. […]
Sucrose gradient centrifugation. […] Aliquots of each fraction were removed for spectrophotometric assay of catalase activity (20); protein concentration as determined by the Bradford method (21); or SDS-PAGE analysis.
Interaction between yeast Rnr1 protein and Sml1 protein assayed by sucrose gradient centrifugation. […] To test if Sml1p binding to the Rnr1p might interfere with Rnr1p dimer formation and thereby inhibit RNR activity, we preincubated Rnr1p and Sml1p in the presence of the allosteric effector dTTP; we then analyzed the mixture on a sucrose gradient (FIG. 11). […]

Row | Molecule | Kd [1] [nM] | effect on Rnr1p monomer/dimer equilibrium (yeast Rnr1p)
1 | B1 | 410 | –
2 | B2 | – | did not influence the monomer/dimer equilibrium

From US7125658B2, “Small protein that interacts with a ribonucleotide reductase subunit and uses thereof” (The Trustees of Columbia University in the City of New York, priority 1998, dated 2006)
